{
  "source": "patent US20180258140A1",
  "about": "“NEW DODECAPEPTIDES AND MICROCAPSULES FUNCTIONALISED WITH THEM TARGETED TO FIBROBLASTS” (Infinitec Activos, S.L., priority 2015, published 2018)",
  "binders": {"B1": {"name": "Peptide 11: Palm-Lys-Phe-Asn-Leu-Pro-Leu-Gly-Asn-Tyr-Lys-Ala-Pro-NH2 (peptide)", "peptide": "Palmitoyl-KFNLPLGNYKAP-NH2", "SMILES": "CCCCCCCCCCCCCCCC(=O)N[C@@H](CCCCN)C(=O)N[C@@H](Cc1ccccc1)C(=O)N[C@@H](CC(N)=O)C(=O)N[C@@H](CC(C)C)C(=O)N1CCC[C@H]1C(=O)N[C@@H](CC(C)C)C(=O)NCC(=O)N[C@@H](CC(N)=O)C(=O)N[C@@H](Cc1ccc(O)cc1)C(=O)N[C@@H](CCCCN)C(=O)N[C@@H](C)C(=O)N1CCC[C@H]1C(N)=O"}, "B2": {"name": "Peptide 4: Palm-Lys-Phe-Asn-Ala-Pro-Leu-Gly-Asn-Tyr-Lys-Lys-Pro-NH2 (peptide)", "peptide": "Palmitoyl-KFNAPLGNYKKP-NH2", "SMILES": "CCCCCCCCCCCCCCCC(=O)N[C@@H](CCCCN)C(=O)N[C@@H](Cc1ccccc1)C(=O)N[C@@H](CC(N)=O)C(=O)N[C@@H](C)C(=O)N1CCC[C@H]1C(=O)N[C@@H](CC(C)C)C(=O)NCC(=O)N[C@@H](CC(N)=O)C(=O)N[C@@H](Cc1ccc(O)cc1)C(=O)N[C@@H](CCCCN)C(=O)N[C@@H](CCCCN)C(=O)N1CCC[C@H]1C(N)=O"}, "B3": {"name": "Peptide 7: Palm-Lys-Phe-Asn-Leu-Pro-Leu-Ala-Asn-Tyr-Lys-Lys-Pro-NH2 (peptide)", "peptide": "Palmitoyl-KFNLPLANYKKP-NH2", "SMILES": "CCCCCCCCCCCCCCCC(=O)N[C@@H](CCCCN)C(=O)N[C@@H](Cc1ccccc1)C(=O)N[C@@H](CC(N)=O)C(=O)N[C@@H](CC(C)C)C(=O)N1CCC[C@H]1C(=O)N[C@@H](CC(C)C)C(=O)N[C@@H](C)C(=O)N[C@@H](CC(N)=O)C(=O)N[C@@H](Cc1ccc(O)cc1)C(=O)N[C@@H](CCCCN)C(=O)N[C@@H](CCCCN)C(=O)N1CCC[C@H]1C(N)=O"}, "B4": {"name": "Peptide 9: Palm-Lys-Phe-Asn-Leu-Pro-Leu-Gly-Asn-Ala-Lys-Lys-Pro-NH2 (peptide)", "peptide": "Palmitoyl-KFNLPLGNAKKP-NH2", "SMILES": "CCCCCCCCCCCCCCCC(=O)N[C@@H](CCCCN)C(=O)N[C@@H](Cc1ccccc1)C(=O)N[C@@H](CC(N)=O)C(=O)N[C@@H](CC(C)C)C(=O)N1CCC[C@H]1C(=O)N[C@@H](CC(C)C)C(=O)NCC(=O)N[C@@H](CC(N)=O)C(=O)N[C@@H](C)C(=O)N[C@@H](CCCCN)C(=O)N[C@@H](CCCCN)C(=O)N1CCC[C@H]1C(N)=O"}, "B5": {"name": "Peptide 8: Palm-Lys-Phe-Asn-Leu-Pro-Leu-Gly-Ala-Tyr-Lys-Lys-Pro-NH2 (peptide)", "peptide": "Palmitoyl-KFNLPLGAYKKP-NH2", "SMILES": "CCCCCCCCCCCCCCCC(=O)N[C@@H](CCCCN)C(=O)N[C@@H](Cc1ccccc1)C(=O)N[C@@H](CC(N)=O)C(=O)N[C@@H](CC(C)C)C(=O)N1CCC[C@H]1C(=O)N[C@@H](CC(C)C)C(=O)NCC(=O)N[C@@H](C)C(=O)N[C@@H](Cc1ccc(O)cc1)C(=O)N[C@@H](CCCCN)C(=O)N[C@@H](CCCCN)C(=O)N1CCC[C@H]1C(N)=O"}, "B6": {"name": "Peptide 3: Palm-Lys-Phe-Ala-Leu-Pro-Leu-Gly-Asn-Tyr-Lys-Lys-Pro-NH2 (peptide)", "peptide": "Palmitoyl-KFALPLGNYKKP-NH2", "SMILES": "CCCCCCCCCCCCCCCC(=O)N[C@@H](CCCCN)C(=O)N[C@@H](Cc1ccccc1)C(=O)N[C@@H](C)C(=O)N[C@@H](CC(C)C)C(=O)N1CCC[C@H]1C(=O)N[C@@H](CC(C)C)C(=O)NCC(=O)N[C@@H](CC(N)=O)C(=O)N[C@@H](Cc1ccc(O)cc1)C(=O)N[C@@H](CCCCN)C(=O)N[C@@H](CCCCN)C(=O)N1CCC[C@H]1C(N)=O"}, "B7": {"name": "Peptide 10: Palm-Lys-Phe-Asn-Leu-Pro-Leu-Gly-Asn-Tyr-Ala-Lys-Pro-NH2 (peptide)", "peptide": "Palmitoyl-KFNLPLGNYAKP-NH2", "SMILES": "CCCCCCCCCCCCCCCC(=O)N[C@@H](CCCCN)C(=O)N[C@@H](Cc1ccccc1)C(=O)N[C@@H](CC(N)=O)C(=O)N[C@@H](CC(C)C)C(=O)N1CCC[C@H]1C(=O)N[C@@H](CC(C)C)C(=O)NCC(=O)N[C@@H](CC(N)=O)C(=O)N[C@@H](Cc1ccc(O)cc1)C(=O)N[C@@H](C)C(=O)N[C@@H](CCCCN)C(=O)N1CCC[C@H]1C(N)=O"}, "B8": {"name": "Peptide 5: Palm-Lys-Phe-Asn-Leu-Ala-Leu-Gly-Asn-Tyr-Lys-Lys-Pro-NH2 (peptide)", "peptide": "Palmitoyl-KFNLALGNYKKP-NH2", "SMILES": "CCCCCCCCCCCCCCCC(=O)N[C@@H](CCCCN)C(=O)N[C@@H](Cc1ccccc1)C(=O)N[C@@H](CC(N)=O)C(=O)N[C@@H](CC(C)C)C(=O)N[C@@H](C)C(=O)N[C@@H](CC(C)C)C(=O)NCC(=O)N[C@@H](CC(N)=O)C(=O)N[C@@H](Cc1ccc(O)cc1)C(=O)N[C@@H](CCCCN)C(=O)N[C@@H](CCCCN)C(=O)N1CCC[C@H]1C(N)=O"}, "B9": {"name": "Peptide 12: Palm-Lys-Phe-Asn-Leu-Pro-Leu-Gly-Asn-Tyr-Lys-Lys-Ala-NH2 (peptide)", "peptide": "Palmitoyl-KFNLPLGNYKKA-NH2", "SMILES": "CCCCCCCCCCCCCCCC(=O)N[C@@H](CCCCN)C(=O)N[C@@H](Cc1ccccc1)C(=O)N[C@@H](CC(N)=O)C(=O)N[C@@H](CC(C)C)C(=O)N1CCC[C@H]1C(=O)N[C@@H](CC(C)C)C(=O)NCC(=O)N[C@@H](CC(N)=O)C(=O)N[C@@H](Cc1ccc(O)cc1)C(=O)N[C@@H](CCCCN)C(=O)N[C@@H](CCCCN)C(=O)N[C@@H](C)C(N)=O"}, "B10": {"name": "Peptide 1: Palm-Lys-Phe-Asn-Leu-Pro-Leu-Gly-Asn-Tyr-Lys-Lys-Pro-NH2 (peptide)", "peptide": "Palmitoyl-KFNLPLGNYKKP-NH2", "SMILES": "CCCCCCCCCCCCCCCC(=O)N[C@@H](CCCCN)C(=O)N[C@@H](Cc1ccccc1)C(=O)N[C@@H](CC(N)=O)C(=O)N[C@@H](CC(C)C)C(=O)N1CCC[C@H]1C(=O)N[C@@H](CC(C)C)C(=O)NCC(=O)N[C@@H](CC(N)=O)C(=O)N[C@@H](Cc1ccc(O)cc1)C(=O)N[C@@H](CCCCN)C(=O)N[C@@H](CCCCN)C(=O)N1CCC[C@H]1C(N)=O"}, "B11": {"name": "Peptide 6: Palm-Lys-Phe-Asn-Leu-Pro-Ala-Gly-Asn-Tyr-Lys-Lys-Pro-NH2 (peptide)", "peptide": "Palmitoyl-KFNLPAGNYKKP-NH2", "SMILES": "CCCCCCCCCCCCCCCC(=O)N[C@@H](CCCCN)C(=O)N[C@@H](Cc1ccccc1)C(=O)N[C@@H](CC(N)=O)C(=O)N[C@@H](CC(C)C)C(=O)N1CCC[C@H]1C(=O)N[C@@H](C)C(=O)NCC(=O)N[C@@H](CC(N)=O)C(=O)N[C@@H](Cc1ccc(O)cc1)C(=O)N[C@@H](CCCCN)C(=O)N[C@@H](CCCCN)C(=O)N1CCC[C@H]1C(N)=O"}},
  "experiment_in_all_cases": "cell-based or functional assay",
  "key": {"[1]": {"target": "human FGFR1 kinase (human, UniProt P11362 398-822, limits assumed)", "sequence (P11362 398-822 limits assumed)": "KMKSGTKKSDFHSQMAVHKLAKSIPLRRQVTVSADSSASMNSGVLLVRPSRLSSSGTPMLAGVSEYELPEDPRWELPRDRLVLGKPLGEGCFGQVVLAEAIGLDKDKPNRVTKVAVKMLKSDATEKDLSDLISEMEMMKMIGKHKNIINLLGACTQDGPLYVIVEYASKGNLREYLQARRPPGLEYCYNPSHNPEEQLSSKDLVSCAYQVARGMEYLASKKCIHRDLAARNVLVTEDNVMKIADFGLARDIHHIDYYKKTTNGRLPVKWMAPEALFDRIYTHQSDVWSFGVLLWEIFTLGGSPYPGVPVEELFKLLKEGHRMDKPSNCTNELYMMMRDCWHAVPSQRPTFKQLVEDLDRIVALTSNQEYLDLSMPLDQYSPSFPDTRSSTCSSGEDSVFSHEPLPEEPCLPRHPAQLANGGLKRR"}, "[2]": {"target": "FGFR4 Kinase (UniProt P22455 460-802, limits assumed)", "sequence (P22455 460-802 limits assumed)": "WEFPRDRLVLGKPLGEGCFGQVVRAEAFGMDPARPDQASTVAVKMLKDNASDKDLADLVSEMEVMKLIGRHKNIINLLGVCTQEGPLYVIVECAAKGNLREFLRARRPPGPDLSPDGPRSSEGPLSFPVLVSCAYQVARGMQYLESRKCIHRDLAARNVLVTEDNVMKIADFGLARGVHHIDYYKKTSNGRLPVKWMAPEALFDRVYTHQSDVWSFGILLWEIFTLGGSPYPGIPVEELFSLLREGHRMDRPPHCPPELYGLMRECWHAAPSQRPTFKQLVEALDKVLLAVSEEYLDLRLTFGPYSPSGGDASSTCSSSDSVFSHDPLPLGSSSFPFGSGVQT"}, "[3]": {"target": "FGFR3 Kinase (UniProt P22607 436-806)", "sequence (P22607 436-806 limits assumed)": "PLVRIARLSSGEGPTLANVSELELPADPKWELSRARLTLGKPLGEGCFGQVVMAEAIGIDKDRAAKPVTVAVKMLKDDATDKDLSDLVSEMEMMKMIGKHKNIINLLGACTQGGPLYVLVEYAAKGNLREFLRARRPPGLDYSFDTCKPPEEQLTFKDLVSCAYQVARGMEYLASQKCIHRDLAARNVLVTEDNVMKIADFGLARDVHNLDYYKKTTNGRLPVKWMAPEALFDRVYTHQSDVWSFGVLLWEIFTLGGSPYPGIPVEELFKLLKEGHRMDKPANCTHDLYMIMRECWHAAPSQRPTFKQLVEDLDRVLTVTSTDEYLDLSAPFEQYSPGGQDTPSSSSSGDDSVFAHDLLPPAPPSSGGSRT"}},
  "note": "*: point of attachment. Palmitoyl = CCCCCCCCCCCCCCCC(=O)*",
  "data": [
    {"binder": "B1", "values": [
      {"measurement": "FGFR1 Kinase % Inhibition", "setting": "[1]", "value": 0, "unit": "%"},
      {"measurement": "FGFR4 Kinase % Inhibition", "setting": "[2]", "value": 0, "unit": "%"},
      {"measurement": "FGFR3 Kinase % Inhibition", "setting": "[3]", "value": 19.3, "unit": "%"}
    ]},
    {"binder": "B2", "values": [
      {"measurement": "FGFR1 Kinase % Inhibition", "setting": "[1]", "value": 0, "unit": "%"},
      {"measurement": "FGFR4 Kinase % Inhibition", "setting": "[2]", "value": 0, "unit": "%"},
      {"measurement": "FGFR3 Kinase % Inhibition", "setting": "[3]", "value": 60.8, "unit": "%"}
    ]},
    {"binder": "B3", "values": [
      {"measurement": "FGFR1 Kinase % Inhibition", "setting": "[1]", "value": 0, "unit": "%"},
      {"measurement": "FGFR4 Kinase % Inhibition", "setting": "[2]", "value": 67.9, "unit": "%"},
      {"measurement": "FGFR3 Kinase % Inhibition", "setting": "[3]", "value": 72.9, "unit": "%"}
    ]},
    {"binder": "B4", "values": [
      {"measurement": "FGFR1 Kinase % Inhibition", "setting": "[1]", "value": 15.7, "unit": "%"},
      {"measurement": "FGFR4 Kinase % Inhibition", "setting": "[2]", "value": 92.5, "unit": "%"},
      {"measurement": "FGFR3 Kinase % Inhibition", "setting": "[3]", "value": 91.6, "unit": "%"}
    ]},
    {"binder": "B5", "values": [
      {"measurement": "FGFR1 Kinase % Inhibition", "setting": "[1]", "value": 0, "unit": "%"},
      {"measurement": "FGFR4 Kinase % Inhibition", "setting": "[2]", "value": 89.5, "unit": "%"},
      {"measurement": "FGFR3 Kinase % Inhibition", "setting": "[3]", "value": 87.9, "unit": "%"}
    ]},
    {"binder": "B6", "values": [
      {"measurement": "FGFR1 Kinase % Inhibition", "setting": "[1]", "value": 85, "unit": "%"},
      {"measurement": "FGFR4 Kinase % Inhibition", "setting": "[2]", "value": 65.9, "unit": "%"},
      {"measurement": "FGFR3 Kinase % Inhibition", "setting": "[3]", "value": 91.9, "unit": "%"}
    ]},
    {"binder": "B7", "values": [
      {"measurement": "FGFR1 Kinase % Inhibition", "setting": "[1]", "value": 0, "unit": "%"},
      {"measurement": "FGFR4 Kinase % Inhibition", "setting": "[2]", "value": 0, "unit": "%"},
      {"measurement": "FGFR3 Kinase % Inhibition", "setting": "[3]", "value": 0, "unit": "%"}
    ]},
    {"binder": "B8", "values": [
      {"measurement": "FGFR1 Kinase % Inhibition", "setting": "[1]", "value": 0, "unit": "%"},
      {"measurement": "FGFR4 Kinase % Inhibition", "setting": "[2]", "value": 0, "unit": "%"},
      {"measurement": "FGFR3 Kinase % Inhibition", "setting": "[3]", "value": 49.6, "unit": "%"}
    ]},
    {"binder": "B9", "values": [
      {"measurement": "FGFR1 Kinase % Inhibition", "setting": "[1]", "value": 0, "unit": "%"},
      {"measurement": "FGFR4 Kinase % Inhibition", "setting": "[2]", "value": 42.3, "unit": "%"},
      {"measurement": "FGFR3 Kinase % Inhibition", "setting": "[3]", "value": 46.4, "unit": "%"}
    ]},
    {"binder": "B10", "values": [
      {"measurement": "FGFR1 Kinase % Inhibition", "setting": "[1]", "value": 0, "unit": "%"},
      {"measurement": "FGFR4 Kinase % Inhibition", "setting": "[2]", "value": 38.7, "unit": "%"},
      {"measurement": "FGFR3 Kinase % Inhibition", "setting": "[3]", "value": 75.8, "unit": "%"}
    ]},
    {"binder": "B11", "values": [
      {"measurement": "FGFR1 Kinase % Inhibition", "setting": "[1]", "value": 92.7, "unit": "%"},
      {"measurement": "FGFR4 Kinase % Inhibition", "setting": "[2]", "value": 69.8, "unit": "%"},
      {"measurement": "FGFR3 Kinase % Inhibition", "setting": "[3]", "value": 78.5, "unit": "%"}
    ]}
  ]
}
